This note sets out measurements from US20060287236A1 (BIO RAD LABORATORIES, published 2006).

For the assay, the target named is T1, transferrin receptor (TfR) (human, UniProt P02786 1-760).
T1 construct: whole, on cells; also called 100 and 200 kDa proteins
In words: immunoprecipitation of surface-biotinylated 293 cell proteins with HFE or FLAG antibodies.

T1 sequence (P02786 whole entry): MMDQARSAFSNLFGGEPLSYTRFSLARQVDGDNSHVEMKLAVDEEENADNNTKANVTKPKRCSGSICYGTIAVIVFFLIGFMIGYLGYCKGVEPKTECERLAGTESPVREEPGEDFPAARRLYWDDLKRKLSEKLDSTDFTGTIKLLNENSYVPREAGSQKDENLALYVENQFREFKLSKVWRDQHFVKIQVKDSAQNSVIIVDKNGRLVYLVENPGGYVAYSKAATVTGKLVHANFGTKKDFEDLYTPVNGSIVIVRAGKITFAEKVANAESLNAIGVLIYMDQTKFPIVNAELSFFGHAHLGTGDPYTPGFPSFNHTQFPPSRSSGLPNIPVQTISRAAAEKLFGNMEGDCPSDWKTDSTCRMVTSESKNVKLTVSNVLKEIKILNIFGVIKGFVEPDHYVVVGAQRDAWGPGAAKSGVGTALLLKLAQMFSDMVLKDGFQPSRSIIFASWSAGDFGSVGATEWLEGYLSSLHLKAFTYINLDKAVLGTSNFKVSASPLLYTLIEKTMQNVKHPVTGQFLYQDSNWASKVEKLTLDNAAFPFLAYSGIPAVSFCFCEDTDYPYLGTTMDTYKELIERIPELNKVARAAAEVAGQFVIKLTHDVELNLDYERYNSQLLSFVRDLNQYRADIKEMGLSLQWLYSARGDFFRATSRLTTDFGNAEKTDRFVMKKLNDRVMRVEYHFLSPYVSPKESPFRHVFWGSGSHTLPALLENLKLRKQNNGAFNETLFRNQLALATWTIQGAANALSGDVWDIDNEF
Experimental: Cell surface protein biotinylations. Cells (4×10⁶) were seeded into 100 mm dishes and grown overnight to 80% confluency. The plates were moved to 4° C. and gently washed four times with PBS. Suflo-NHS-LC Biotin (Pierce) was added in PBS to a final concentration of 500 g/ml and incubated on ice for 30 mins. The Biotin reagent was removed and the plates washed 4 times with PBS containing 50 mM glycine. Cells were lysed in 500 ml of 25 mM Tris-HCL, pH 7.5 150 mM NaCl plus 0.5% NP-40. […] Precipitated proteins were separated on 4-20% Tris-glycine polyacrylamide gels (Novex), electroblotted to PVDF membranes (Novex) and biotinylated proteins were visualized with 2 μg/ml of streptavidin-HRP (Pierce) followed by ECL detection reagents (Amersham).
Biotinylated proteins were detected with streptavidin-conjugated horseradish peroxidase (HRP).

B1: C282Y HFE mutant over-expressed in 293 cells (other, UniProt Q30201 23-348, looked up)
MHC heavy: RLLRSHSLHYLFMGASEQDLGLSLFEALGYVDDQLFVFYDHESRRVEPRTPWVSSRISSQMWLQLSQSLKGWDHMFTVDFWTIMENHNHSKESHTLQVILGCEMQEDNSTEGYWKYGYDGQDHLEFCPDTLDWRAAEPRAWPTKLEWERHKIRARQNRAYLERDCPAQLQQLLELGRGVLDQQVPPLVKVTHHVTSSVTTLRCRALNYYPQNITMKWLKDKQPMDAKEFEPKDVLPNGDGTYQGWITLAVPPGEEQRYTYQVEHPGLDQPLIVIWEPSPSGTLVIGVISGIAVFVVILFIGILFIILRKRQGSRGAMGHYVLAERE
notes: also called C282Y mutant
For the molecule B1, the binding result was “no binding”.
